Target: FadR (Escherichia coli (EHEC) 86-24, UniProt B5YXL1 1-239)
Assay: EMSA; apo FadR, no ligand
Details: protein: recombinant, tags: N-terminal His (pET28, NdeI/BamHI), chain copies: 2, blunt

Chain of FadR (B5YXL1 whole entry): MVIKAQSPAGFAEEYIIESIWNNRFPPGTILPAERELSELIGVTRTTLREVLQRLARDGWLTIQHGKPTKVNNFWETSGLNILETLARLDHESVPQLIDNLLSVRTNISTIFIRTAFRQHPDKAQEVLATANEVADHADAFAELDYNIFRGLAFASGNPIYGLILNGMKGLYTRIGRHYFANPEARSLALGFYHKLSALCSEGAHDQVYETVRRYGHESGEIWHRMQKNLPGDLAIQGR

B1: ler (LEE1) promoter distal FadR site (FadR_ler site) (dsDNA)
DNA 1: TAATCGTTTGTCCGACTTTAACAGA
DNA 2: TCTGTTAAAGTCGGACAAACGATTA
binding result (label: 32P (T4 PNK)): binds

B2: fadL promoter FadR site (FadR_fadL site) (dsDNA)
DNA 1: ATCTGGTACGACCAGAT
DNA 2: ATCTGGTCGTACCAGAT
binding result (label: 32P (EMSA, T4 PNK), none stated in thermal shift): binds
